Data as given in paper PMC9902533, “Direct digital sensing of protein biomarkers in solution”.

Columns and labels:
[1] = target: alpha-synuclein oligomers (human, UniProt P37840 1-140); experiment: microchip free-flow electrophoresis, single-molecule counting (DigitISA); 100 nM aptamer; complex 32.7 pM; 10 mM HEPES pH 7.4, 0.05% Tween-20, room temperature (IgE; fibrils and exosomes same buffer); FUS: 50 mM Tris-HCl pH 7.4, 25 mM KCl, 0.02% Tween-20, on-chip des
[2] = target: CD63 on exosomes (human? (MDA-MB-231 breast cancer cell …, UniProt P08962 2-238)); experiment: microchip free-flow electrophoresis, single-particle counting (DigitISA); 5, 50, 100 nM aptamer; isolated exosomes; 10 mM HEPES pH 7.4, 0.05% Tween-20, room temperature (IgE; fibrils and exosomes same buffer); FUS: 50 mM Tris-HCl pH 7.4, 25 mM KCl, 0.02% Tween-20, on-chip desalting; oligomers: from PBS pH 7.4, on-chip desalting; settings: protein: native; tags: none; label: fluorescent label, not specified
[3] = target: FUS-SNAP (UniProt P35637 1-526); experiment: microchip free-flow electrophoresis (DigitISA); 700 nM aptamer, 2 uM FUS, condensates present; monomer-bound vs free; 10 mM HEPES pH 7.4, 0.05% Tween-20, room temperature (IgE; fibrils and exosomes same buffer); FUS: 50 mM Tris-HCl pH 7.4, 25 mM KCl, 0.02% Tween-20, on-chip desalting; oligomers: from PBS pH 7.4, on-chip desalting; settings: protein: recombinant; tags: SNAP; label: 3'-Atto488
Sequence of FUS-SNAP (P35637 whole entry): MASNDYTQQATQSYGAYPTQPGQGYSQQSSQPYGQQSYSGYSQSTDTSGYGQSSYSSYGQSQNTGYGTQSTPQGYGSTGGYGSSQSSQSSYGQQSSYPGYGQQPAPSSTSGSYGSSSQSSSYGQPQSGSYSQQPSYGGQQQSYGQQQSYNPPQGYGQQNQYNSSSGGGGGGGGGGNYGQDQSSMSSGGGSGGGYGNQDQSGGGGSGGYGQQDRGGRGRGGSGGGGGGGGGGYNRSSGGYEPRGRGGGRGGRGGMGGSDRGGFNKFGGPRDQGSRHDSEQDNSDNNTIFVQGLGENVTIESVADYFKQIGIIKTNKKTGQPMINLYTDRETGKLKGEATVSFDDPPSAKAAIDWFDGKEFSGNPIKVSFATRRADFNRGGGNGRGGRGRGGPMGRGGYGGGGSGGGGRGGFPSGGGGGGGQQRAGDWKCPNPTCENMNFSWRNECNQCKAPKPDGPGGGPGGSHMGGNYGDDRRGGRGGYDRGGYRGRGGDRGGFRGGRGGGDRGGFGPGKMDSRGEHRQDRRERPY

Sequence of CD63 on exosomes (human? (P08962 2-238): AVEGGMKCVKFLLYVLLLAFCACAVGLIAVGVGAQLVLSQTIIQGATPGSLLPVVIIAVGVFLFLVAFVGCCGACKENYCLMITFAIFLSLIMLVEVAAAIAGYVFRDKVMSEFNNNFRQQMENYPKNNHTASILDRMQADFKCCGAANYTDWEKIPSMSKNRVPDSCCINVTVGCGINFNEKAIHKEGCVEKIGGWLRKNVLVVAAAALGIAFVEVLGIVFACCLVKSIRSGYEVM

Binder: TTTTGGGTCGGCTGTCCGTGGGTGGGGA (structured_DNA) [T-SO606 aptamer]
- binding result [1]: binds

Binder: CACCCCACCTCGCTCCCGTGACACTAATGCTA (structured_DNA) [CD63 aptamer]
- binding result [2]: binds

Binder: UUGUAUUUUGAGCUAGUUUGGUGAC (ssRNA) [GGUG RNA aptamer]
- Kd [3]: 280 ± 20 nM
